Experiments:
FIG. 50B = test: FIG. 50B; design: CLEARANCE (μg/ml): unit not given here
[1] = tested on: BNA7 from B/Perth/211/2011
IAV and IBV NA antigens = format: binding, influenza A virus, influenza B virus
[2] = target: group I (H1N1) IAV, group II (H3N2) IAV, and IBV NAs; format: biochemical, influenza A virus, influenza B virus
N9 from A/Anhui/1/2013 = format: binding
N1 and N2 neuraminidases = format: biochemical, influenza A virus
[3] = tested on: pseudovirus-derived neuraminidase; format: biochemical, influenza A virus

With FNI9-LS the “AUCLAST” value (FIG. 32) was 254.583 µg·days/mL, the “CLss” value (FIG. 32) was 1.944 mL/day and the “HALF-LIFE” value (FIG. 32) was 14.198 days. For the same substance, the “LAMBDA_Z” value (FIG. 32) was 0.05 day⁻¹, the “Vz” value (FIG. 32) was 40.281 mL and the “AUC” value (FIG. 50B) was 527.46 ± 75.92 µg·days/mL. For the same substance, the “CLEARANCE (μg/ml)” value (FIG. 50B) was 1.47 ± 0.19 and the “HALF-LIFE” value (FIG. 50B) was 13.37 ± 1.52 days.
For FNI9, the IC50 [1] was 23.209 mg/mL.
In the case of “FNI9-v8.1: FNI9 variant with S28T in VH; VH SEQ ID NO:54, VL SEQ ID NO:8”, the “affinity by surface plasmon resonance” value (IAV and IBV NA antigens) is reported as “higher affinity”, the “in vitro inhibition of sialidase activity (reported as IC50)” value [2] is reported as “improved” and the “binding to N9_A_Anhui_2013, assessed by flow cytometry” value (N9 from A/Anhui/1/2013) is reported as “binds more strongly”. For the same substance, the “IC50 for inhibiting sialidase activity in a MUNANA assay” value (N1 and N2 neuraminidases) was “lower IC50” and the “IC50 for inhibiting sialidase activity in an ELLA assay” value [3] was “lower IC50”.

— patent US20260184814A1 (priority 2022, published 2026)
